Measured values taken from paper PMC6957483, “Anosmin-1 activates vascular endothelial growth factor receptor and its related signaling pathway for olfactory bulb angiogenesis” (Scientific Reports, 2020).

B1: Recombinant human anosmin-1 Δ2–4 deletion mutant (domain or fragment)
chain: AGPGAAAARRLDESLSAGSVQRARCASRCLSLQITRISAFFQHFQNNGSLVWCQNHKQCSKCLEPCKESGDLRKHQCQSFCEPLFPKKSYECLTSCEFLKYILLVKQGDCPAPEKASGFAAACVESCEVDNECSGVKKCCSNGCGHTCQVPKTLYKGVPLKPRKELRFTELQSGQLEVKWSSKFNISIEPVIYVVQRRWNYGIHPSEDDATHWQTVAQTTDERVQLTDIRPSRWYQFRVAAVNVHGTRGFTAPSKHFRSSKDP
modifications: secreted from 293T cells (pSecTag2; vector signal and His tag left out), likely N-glycosylated; cysteine box + WAP + first FnIII kept, FnIII 2-4 and His-rich region deleted; C-terminal limit taken …
B2: Recombinant human anosmin-1 wild-type (natural protein, UniProt P23352 25-680, looked up)
chain: AGPGAAAARRLDESLSAGSVQRARCASRCLSLQITRISAFFQHFQNNGSLVWCQNHKQCSKCLEPCKESGDLRKHQCQSFCEPLFPKKSYECLTSCEFLKYILLVKQGDCPAPEKASGFAAACVESCEVDNECSGVKKCCSNGCGHTCQVPKTLYKGVPLKPRKELRFTELQSGQLEVKWSSKFNISIEPVIYVVQRRWNYGIHPSEDDATHWQTVAQTTDERVQLTDIRPSRWYQFRVAAVNVHGTRGFTAPSKHFRSSKDPSAPPAPANLRLANSTVNSDGSVTVTIVWDLPEEPDIPVHHYKVFWSWMVSSKSLVPTKKKRRKTTDGFQNSVILEKLQPDCDYVVELQAITYWGQTRLKSAKVSLHFTSTHATNNKEQLVKTRKGGIQTQLPFQRRRPTRPLEVGAPFYQDGQLQVKVYWKKTEDPTVNRYHVRWFPEACAHNRTTGSEASSGMTHENYIILQDLSFSCKYKVTVQPIRPKSHSKAEAVFFTTPPCSALKGKSHKPVGCLGEAGHVLSKVLAKPENLSASFIVQDVNITGHFSWKMAKANLYQPMTGFQVTWAEVTTESRQNSLPNSIISQSQILPSDHYVLTVPNLRPSTLYRLEVQVLTPGGEGPATIKTFRTPELPPSSAHRSHLKHRHPHHYKPSPERY
notes: anosmin-1, human, product of the ANOS1 gene; also called anosmin-1 WT; WT; source: 293 T cells (pSecTag2 vector), conditioned media, purified (HisTrap HP column, PD-10 column)

Target: T1, Recombinant human VEGFR2-Fc (human, UniProt P35968 20-764)
T1 construct: VEGF receptor-2 (VEGFR2, KDR), human; Probably the extracellular domain fused to an IgG Fc; In the functional rows this id stands for the whole VEGFR2 on HUVECs or PAE/KDR cells; also called VEGF receptor-2; KDR; source: bought: BioLegend
Test: SPR; BIAcore, 20 °C; VEGFR2-Fc (50 µg/mL in 10 mM sodium acetate, pH 4.5) coupled to an EDC/NHS-activated CM5 chip; anosmin-1, its mutant or VEGF-A injected in PBS with 0.35 M NaCl at 30 µL/min; affinity calculated from the on- and off-rates
Conditions: both partners purified

T1 sequence (P35968 20-764): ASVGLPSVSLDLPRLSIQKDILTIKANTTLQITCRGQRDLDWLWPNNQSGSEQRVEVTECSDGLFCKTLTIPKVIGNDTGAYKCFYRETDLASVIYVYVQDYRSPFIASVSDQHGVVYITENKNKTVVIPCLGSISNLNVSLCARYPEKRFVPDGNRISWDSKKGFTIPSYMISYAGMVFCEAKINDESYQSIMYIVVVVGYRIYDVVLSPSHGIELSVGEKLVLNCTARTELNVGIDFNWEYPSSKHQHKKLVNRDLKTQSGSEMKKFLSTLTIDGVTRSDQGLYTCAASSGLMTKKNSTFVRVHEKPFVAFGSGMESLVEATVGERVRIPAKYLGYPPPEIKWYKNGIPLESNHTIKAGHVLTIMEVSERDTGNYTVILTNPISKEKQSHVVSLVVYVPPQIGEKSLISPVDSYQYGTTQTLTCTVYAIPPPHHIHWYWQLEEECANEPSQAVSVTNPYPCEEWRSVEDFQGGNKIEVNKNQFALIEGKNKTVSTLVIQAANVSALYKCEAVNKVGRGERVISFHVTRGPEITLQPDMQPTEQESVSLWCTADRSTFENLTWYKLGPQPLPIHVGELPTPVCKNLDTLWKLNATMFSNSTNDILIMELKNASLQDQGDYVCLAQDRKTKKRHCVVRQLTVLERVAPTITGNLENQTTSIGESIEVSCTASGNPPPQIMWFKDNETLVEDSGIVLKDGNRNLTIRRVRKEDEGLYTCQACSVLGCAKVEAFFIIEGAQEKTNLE

Binder | Kd [nM] | koff [s⁻¹] | kon [M⁻¹ s⁻¹]
B1 | 1400 | 0.046 | 34000
B2 | 32 | 0.0011 | 35000
